From patent publication US20150368311A1 (Sanofi, published 2015)
Non-standard residues stand in square brackets, D forms with d. No end group written: not given here. Ala(4-thiazolyl) = N[C@@H](Cc1cscn1)C(=O)O; 1Nal = N[C@@H](Cc1cccc2ccccc12)C(=O)O; Chg = N[C@H](C(=O)O)C1CCCCC1; Tle = CC(C)(C)[C@H](N)C(=O)O; Nle = CCCC[C@H](N)C(=O)O

B1: SEQ ID NO: 24 (peptide)
peptide: [Ala(4-thiazolyl)]SQGTFTSD[Chg]SKQ[Nle]ESRRAQEFIEWLLATGPESGAPPPS-OH
modifications: N-terminus assumed
SMILES: CCCC[C@H](NC(=O)[C@H](CCC(N)=O)NC(=O)[C@H](CCCCN)NC(=O)[C@H](CO)NC(=O)[C@@H](NC(=O)[C@H](CC(=O)O)NC(=O)[C@H](CO)NC(=O)[C@@H](NC(=O)[C@H](Cc1ccccc1)NC(=O)[C@@H](NC(=O)CNC(=O)[C@H](CCC(N)=O)NC(=O)[C@H](CO)NC(=O)[C@@H](N)Cc1cscn1)[C@@H](C)O)[C@@H](C)O)C1CCCCC1)C(=O)N[C@@H](CCC(=O)O)C(=O)N[C@@H](CO)C(=O)N[C@@H](CCCNC(=N)N)C(=O)N[C@@H](CCCNC(=N)N)C(=O)N[C@@H](C)C(=O)N[C@@H](CCC(N)=O)C(=O)N[C@@H](CCC(=O)O)C(=O)N[C@@H](Cc1ccccc1)C(=O)N[C@H](C(=O)N[C@@H](CCC(=O)O)C(=O)N[C@@H](Cc1c[nH]c2ccccc12)C(=O)N[C@@H](CC(C)C)C(=O)N[C@@H](CC(C)C)C(=O)N[C@@H](C)C(=O)N[C@H](C(=O)NCC(=O)N1CCC[C@H]1C(=O)N[C@@H](CCC(=O)O)C(=O)N[C@@H](CO)C(=O)NCC(=O)N[C@@H](C)C(=O)N1CCC[C@H]1C(=O)N1CCC[C@H]1C(=O)N1CCC[C@H]1C(=O)N[C@@H](CO)C(=O)O)[C@@H](C)O)[C@@H](C)CC
B2: SEQ ID NO: 22 (peptide)
peptide: [Ala(4-thiazolyl)]SQGTFTSD[1Nal]SKQLESRRAQDFIEWLLATGPESGAPPPS-OH
modifications: N-terminus assumed
SMILES: CC[C@H](C)[C@H](NC(=O)[C@H](Cc1ccccc1)NC(=O)[C@H](CC(=O)O)NC(=O)[C@H](CCC(N)=O)NC(=O)[C@H](C)NC(=O)[C@H](CCCNC(=N)N)NC(=O)[C@H](CCCNC(=N)N)NC(=O)[C@H](CO)NC(=O)[C@H](CCC(=O)O)NC(=O)[C@H](CC(C)C)NC(=O)[C@H](CCC(N)=O)NC(=O)[C@H](CCCCN)NC(=O)[C@H](CO)NC(=O)[C@H](Cc1cccc2ccccc12)NC(=O)[C@H](CC(=O)O)NC(=O)[C@H](CO)NC(=O)[C@@H](NC(=O)[C@H](Cc1ccccc1)NC(=O)[C@@H](NC(=O)CNC(=O)[C@H](CCC(N)=O)NC(=O)[C@H](CO)NC(=O)[C@@H](N)Cc1cscn1)[C@@H](C)O)[C@@H](C)O)C(=O)N[C@@H](CCC(=O)O)C(=O)N[C@@H](Cc1c[nH]c2ccccc12)C(=O)N[C@@H](CC(C)C)C(=O)N[C@@H](CC(C)C)C(=O)N[C@@H](C)C(=O)N[C@H](C(=O)NCC(=O)N1CCC[C@H]1C(=O)N[C@@H](CCC(=O)O)C(=O)N[C@@H](CO)C(=O)NCC(=O)N[C@@H](C)C(=O)N1CCC[C@H]1C(=O)N1CCC[C@H]1C(=O)N1CCC[C@H]1C(=O)N[C@@H](CO)C(=O)O)[C@@H](C)O
B3: SEQ ID NO: 25 (peptide)
peptide: [Ala(4-thiazolyl)]SQGTFTSD[Tle]SKQ[Nle]ESRRAQEFIEWLLATGPESGAPPPS-OH
modifications: N-terminus assumed
SMILES: CCCC[C@H](NC(=O)[C@H](CCC(N)=O)NC(=O)[C@H](CCCCN)NC(=O)[C@H](CO)NC(=O)[C@@H](NC(=O)[C@H](CC(=O)O)NC(=O)[C@H](CO)NC(=O)[C@@H](NC(=O)[C@H](Cc1ccccc1)NC(=O)[C@@H](NC(=O)CNC(=O)[C@H](CCC(N)=O)NC(=O)[C@H](CO)NC(=O)[C@@H](N)Cc1cscn1)[C@@H](C)O)[C@@H](C)O)C(C)(C)C)C(=O)N[C@@H](CCC(=O)O)C(=O)N[C@@H](CO)C(=O)N[C@@H](CCCNC(=N)N)C(=O)N[C@@H](CCCNC(=N)N)C(=O)N[C@@H](C)C(=O)N[C@@H](CCC(N)=O)C(=O)N[C@@H](CCC(=O)O)C(=O)N[C@@H](Cc1ccccc1)C(=O)N[C@H](C(=O)N[C@@H](CCC(=O)O)C(=O)N[C@@H](Cc1c[nH]c2ccccc12)C(=O)N[C@@H](CC(C)C)C(=O)N[C@@H](CC(C)C)C(=O)N[C@@H](C)C(=O)N[C@H](C(=O)NCC(=O)N1CCC[C@H]1C(=O)N[C@@H](CCC(=O)O)C(=O)N[C@@H](CO)C(=O)NCC(=O)N[C@@H](C)C(=O)N1CCC[C@H]1C(=O)N1CCC[C@H]1C(=O)N1CCC[C@H]1C(=O)N[C@@H](CO)C(=O)O)[C@@H](C)O)[C@@H](C)CC
B4: SEQ ID NO: 23 (peptide)
peptide: [Ala(4-thiazolyl)]SQGTFTSD[Chg]SKQLESRRAQDFIEWLLATGPESGAPPPS-OH
modifications: N-terminus assumed
SMILES: CC[C@H](C)[C@H](NC(=O)[C@H](Cc1ccccc1)NC(=O)[C@H](CC(=O)O)NC(=O)[C@H](CCC(N)=O)NC(=O)[C@H](C)NC(=O)[C@H](CCCNC(=N)N)NC(=O)[C@H](CCCNC(=N)N)NC(=O)[C@H](CO)NC(=O)[C@H](CCC(=O)O)NC(=O)[C@H](CC(C)C)NC(=O)[C@H](CCC(N)=O)NC(=O)[C@H](CCCCN)NC(=O)[C@H](CO)NC(=O)[C@@H](NC(=O)[C@H](CC(=O)O)NC(=O)[C@H](CO)NC(=O)[C@@H](NC(=O)[C@H](Cc1ccccc1)NC(=O)[C@@H](NC(=O)CNC(=O)[C@H](CCC(N)=O)NC(=O)[C@H](CO)NC(=O)[C@@H](N)Cc1cscn1)[C@@H](C)O)[C@@H](C)O)C1CCCCC1)C(=O)N[C@@H](CCC(=O)O)C(=O)N[C@@H](Cc1c[nH]c2ccccc12)C(=O)N[C@@H](CC(C)C)C(=O)N[C@@H](CC(C)C)C(=O)N[C@@H](C)C(=O)N[C@H](C(=O)NCC(=O)N1CCC[C@H]1C(=O)N[C@@H](CCC(=O)O)C(=O)N[C@@H](CO)C(=O)NCC(=O)N[C@@H](C)C(=O)N1CCC[C@H]1C(=O)N1CCC[C@H]1C(=O)N1CCC[C@H]1C(=O)N[C@@H](CO)C(=O)O)[C@@H](C)O
B5: SEQ ID NO: 28 (peptide)
peptide: HSQGTFTSDYSKQLESRRAQEFIEWLLAGGPESGAPPPS-OH
B6: SEQ ID NO: 26 (peptide)
peptide: HSQGTFTSDLSKQ[Nle]ESRRAQDFIEWLLATGPESGAPPPS-OH
modifications: N-terminus assumed
SMILES: CCCC[C@H](NC(=O)[C@H](CCC(N)=O)NC(=O)[C@H](CCCCN)NC(=O)[C@H](CO)NC(=O)[C@H](CC(C)C)NC(=O)[C@H](CC(=O)O)NC(=O)[C@H](CO)NC(=O)[C@@H](NC(=O)[C@H](Cc1ccccc1)NC(=O)[C@@H](NC(=O)CNC(=O)[C@H](CCC(N)=O)NC(=O)[C@H](CO)NC(=O)[C@@H](N)Cc1c[nH]cn1)[C@@H](C)O)[C@@H](C)O)C(=O)N[C@@H](CCC(=O)O)C(=O)N[C@@H](CO)C(=O)N[C@@H](CCCNC(=N)N)C(=O)N[C@@H](CCCNC(=N)N)C(=O)N[C@@H](C)C(=O)N[C@@H](CCC(N)=O)C(=O)N[C@@H](CC(=O)O)C(=O)N[C@@H](Cc1ccccc1)C(=O)N[C@H](C(=O)N[C@@H](CCC(=O)O)C(=O)N[C@@H](Cc1c[nH]c2ccccc12)C(=O)N[C@@H](CC(C)C)C(=O)N[C@@H](CC(C)C)C(=O)N[C@@H](C)C(=O)N[C@H](C(=O)NCC(=O)N1CCC[C@H]1C(=O)N[C@@H](CCC(=O)O)C(=O)N[C@@H](CO)C(=O)NCC(=O)N[C@@H](C)C(=O)N1CCC[C@H]1C(=O)N1CCC[C@H]1C(=O)N1CCC[C@H]1C(=O)N[C@@H](CO)C(=O)O)[C@@H](C)O)[C@@H](C)CC
B7: SEQ ID NO: 27 (peptide)
peptide: HSQGTFTSDLSKQLESRRAQEFIEWLLAGGPESGAPPPS-OH

Target: T1, human GLP-1 receptor (human, UniProt P43220 24-463)
Test: cell-based or functional assay

Compared with B1, B2 is higher in “EC50 hGLP-1 R [pM], cAMP formation” value: 8310 pM for the first, 8570 pM for the second.

First: B3
Second: B4
The “EC50 hGLP-1 R [pM], cAMP formation” value of the first is lower: 23100 pM for the first, 50700 pM for the second.

Target: T2, human glucagon receptor (human, UniProt P47871 26-477)
Test: cell-based or functional assay

T2 sequence (P47871 26-477): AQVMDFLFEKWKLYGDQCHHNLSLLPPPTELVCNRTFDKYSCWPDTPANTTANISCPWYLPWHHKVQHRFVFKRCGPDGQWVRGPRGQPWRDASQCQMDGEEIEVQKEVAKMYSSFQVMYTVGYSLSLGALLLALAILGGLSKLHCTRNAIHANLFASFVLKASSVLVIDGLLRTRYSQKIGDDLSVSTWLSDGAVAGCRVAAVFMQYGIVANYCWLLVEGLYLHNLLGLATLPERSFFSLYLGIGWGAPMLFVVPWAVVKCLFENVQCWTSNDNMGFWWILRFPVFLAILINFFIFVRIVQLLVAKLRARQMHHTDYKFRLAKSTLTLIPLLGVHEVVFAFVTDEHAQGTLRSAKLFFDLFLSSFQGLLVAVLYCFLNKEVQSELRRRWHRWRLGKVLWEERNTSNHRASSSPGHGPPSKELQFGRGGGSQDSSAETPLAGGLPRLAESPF

Going from B1 to B2, the “EC50 hGLUC R [pM], cAMP formation” value rises from 0.7 pM to 1 pM.

Going from B3 to B4, the “EC50 hGLUC R [pM], cAMP formation” value rises from 0.8 pM to 3.5 pM.

Target: T1, human GLP-1 receptor
Test: cell-based or functional assay
Remark: another data set of the same source

First: B5
Second: B6
The “EC50 hGLP-1R, cAMP formation” value of the first is 24-fold lower: 0.0524 nM for the first, 1.24 nM for the second.

In the case of B7, the “EC50 hGLP-1R, cAMP formation” value is reported as 0.0808 nM.

Target: T2, human glucagon receptor
Test: cell-based or functional assay
Remark: another data set of the same source

Compared with B5, B6 is 9.4-fold higher in “EC50 hGlucagon-R, cAMP formation” value: 0.001 nM for the first, 0.0094 nM for the second.

In the case of B7, the “EC50 hGlucagon-R, cAMP formation” value is reported as 0.0013 nM.
